# Assay results taken from publication PMC6536551, “The viral protein corona directs viral pathogenesis and amyloid aggregation” (Nature Communications, 2019).
# B1: NNFGAIL peptide (model amyloidogenic peptide derived from islet amyloid polypeptide, IAPP) (peptide)
# peptide: NNFGAIL
# notes: […]; text and methods print NNFGAIL; source: synthetic peptide (Pepscan)
# Biological target: the molecule itself
# Assay: thioflavin-T fluorescence
protein,measurement,value
B1,binding result,binds
